Laboratory results published in patent JPH11332563A.

Target: ヒト可溶性CD4 (human soluble CD4 prepared in Example 2, C-terminal FLAG-tag, from COS7 cells) (human) (UniProt P01730)
Assay: SPR (BIAcore 2000), antibody amine-coupled on CM5, soluble CD4 as analyte

13B8.2抗体 (イムノテック社) (antibody)
Kd: 7.58 nM | koff: 0.000138 s⁻¹ | kon: 18200 M⁻¹ s⁻¹
